Article PMC12923992 (Cell metabolism, 2026)

Target: T1, N-terminal cytosolic domain of Band 3 (residues 1–395) (human, UniProt P02730 1-395)
T1 sequence (looked up): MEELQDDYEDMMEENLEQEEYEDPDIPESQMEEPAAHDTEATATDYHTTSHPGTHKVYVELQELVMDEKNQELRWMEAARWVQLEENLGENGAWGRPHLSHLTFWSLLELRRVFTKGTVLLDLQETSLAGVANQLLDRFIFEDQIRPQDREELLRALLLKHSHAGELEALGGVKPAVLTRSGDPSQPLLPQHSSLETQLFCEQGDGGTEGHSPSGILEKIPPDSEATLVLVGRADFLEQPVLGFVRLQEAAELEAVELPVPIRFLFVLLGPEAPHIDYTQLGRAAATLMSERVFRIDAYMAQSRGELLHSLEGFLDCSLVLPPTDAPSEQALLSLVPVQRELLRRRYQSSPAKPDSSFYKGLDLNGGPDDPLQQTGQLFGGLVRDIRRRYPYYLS
Assay: ITC

B1: recombinantly-expressed human GAPDH (enzyme)
chain: not shown
Kd: 1.18 µM
